Assay results as given in patent US20150353909.

What was measured:
[1] = biological target: purified recombinant linear UB trimers
[2] = biological target: T1, HA3-RUB-GST, Q9SHE7
T1 chain: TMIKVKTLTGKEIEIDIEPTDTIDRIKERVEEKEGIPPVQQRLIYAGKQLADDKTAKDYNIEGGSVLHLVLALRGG

[3] = biological target: K48-tetraubiquitin chains, P0CG48
[4] = biological target: purified recombinant linear UB dimers
[5] = biological target: purified recombinant linear UB tetramers
[6] = biological target: K63-tetraubiquitin chains, P0CG48
[7] = biological target: HA3-UBQ-GST [GST: P08515]
[8] = biological target: HA3-SUMO-GST, P55852

Chain of K63-tetraubiquitin chains, P0CG48 (P0CG48 whole entry, looked up): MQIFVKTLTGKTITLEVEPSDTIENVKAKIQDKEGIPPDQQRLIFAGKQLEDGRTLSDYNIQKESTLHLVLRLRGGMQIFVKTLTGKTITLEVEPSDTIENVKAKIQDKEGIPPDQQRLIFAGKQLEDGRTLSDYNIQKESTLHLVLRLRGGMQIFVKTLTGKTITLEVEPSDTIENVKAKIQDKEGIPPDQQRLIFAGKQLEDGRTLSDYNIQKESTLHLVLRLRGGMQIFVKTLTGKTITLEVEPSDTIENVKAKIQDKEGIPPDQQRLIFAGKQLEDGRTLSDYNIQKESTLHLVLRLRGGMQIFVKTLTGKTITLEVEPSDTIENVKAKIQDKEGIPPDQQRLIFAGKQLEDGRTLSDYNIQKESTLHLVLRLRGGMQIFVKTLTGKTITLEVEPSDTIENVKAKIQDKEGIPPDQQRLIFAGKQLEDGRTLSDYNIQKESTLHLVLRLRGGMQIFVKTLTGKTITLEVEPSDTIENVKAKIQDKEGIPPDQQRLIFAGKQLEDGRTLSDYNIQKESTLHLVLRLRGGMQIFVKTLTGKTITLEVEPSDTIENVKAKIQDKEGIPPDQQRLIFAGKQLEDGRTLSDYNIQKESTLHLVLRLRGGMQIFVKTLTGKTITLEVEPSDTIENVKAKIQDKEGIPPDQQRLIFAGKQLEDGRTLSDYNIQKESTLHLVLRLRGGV
Chain of K48-tetraubiquitin chains, P0CG48 (P0CG48 whole entry, looked up): as above

B1: OTU4c-NΔ (protein)
chain: SGLSRRHYTGFRVSVSNRPSSWHDKGLFGFAYTGVIVSLLVCYSSTSQSAYADSSRDKDANNVHHHSSDGKFHNGKRVYTDYSIIGIPGDGRCLFRSVAHGFCLRSGKLAPGEKMQRELADELRTRVADEFIQRRQETEWFVEGDFDTYVRQIRDPHVWGGEPELFMASHVLQMPITVYMKDDKAGGLISIAEYGQEYGKDDPIRVLYHGFGHYDALLLHESKASIPKSKL
- catalytic activities [1]: did not modify
- catalytic activities [2]: did not modify
- catalytic activities [3]: did not modify
- catalytic activities [4]: did not modify
- catalytic activities [5]: did not modify
- catalytic activities [6]: did not modify
- catalytic activities [7]: did not modify

B2: GST-OTU4c-C136S (protein)
chain: MMICYSPITTCSRNAISIKRHLGSRLYGVVAHGSSKFSCYSLLSGLSRRHYTGFRVSVSNRPSSWHDKGLFGFAYTGVIVSLLVCYSSTSQSAYADSSRDKDANNVHHHSSDGKFHNGKRVYTDYSIIGIPGDGRSLFRSVAHGFCLRSGKLAPGEKMQRELADELRTRVADEFIQRRQETEWFVEGDFDTYVRQIRDPHVWGGEPELFMASHVLQMPITVYMKDDKAGGLISIAEYGQEYGKDDPIRVLYHGFGHYDALLLHESKASIPKSKL
- linear UB polymer cleavage activity [1]: generally abolished
- fusion protein cleavage activity [2]: generally abolished
- cleavage activity [3]: completely abolished
- linear UB polymer cleavage activity [4]: generally abolished
- linear UB polymer cleavage activity [5]: generally abolished
- cleavage activity [6]: completely abolished
- fusion protein cleavage activity [7]: generally abolished

B3: GST-OTU4c (protein)
chain: MMICYSPITTCSRNAISIKRHLGSRLYGVVAHGSSKFSCYSLLSGLSRRHYTGFRVSVSNRPSSWHDKGLFGFAYTGVIVSLLVCYSSTSQSAYADSSRDKDANNVHHHSSDGKFHNGKRVYTDYSIIGIPGDGRCLFRSVAHGFCLRSGKLAPGEKMQRELADELRTRVADEFIQRRQETEWFVEGDFDTYVRQIRDPHVWGGEPELFMASHVLQMPITVYMKDDKAGGLISIAEYGQEYGKDDPIRVLYHGFGHYDALLLHESKASIPKSKL
- in vitro deubiquitylation activity [1]: ++
- in vitro deubiquitylation activity [2]: +
- in vitro deubiquitylation activity [3]: +++
- in vitro deubiquitylation activity [4]: -
- in vitro deubiquitylation activity [5]: ++
- in vitro deubiquitylation activity [6]: +++
- in vitro deubiquitylation activity [8]: -
- in vitro deubiquitylation activity [7]: ++

B4: His-tagged OTU2 (protein)
chain: MEGIIVRRVIPSDNSCLFNAIGYVMDKDKNKAPELRQVIAAAVASNKEKYNEAFLGKLNEEYCAWILNPDKWGGAIELSILADYYGREIAAYDIQTSRCDLYGQTRNYDERVMLIYDGLHYDALALSPFEGAEEDFDMTIYPVGKDRSIGSIEGLALNLVKDQQRKRSYTDTANFTLRCGVCQIGVIGQKEAVEHAQATGHVNFQEYK
- in vitro deubiquitylation activity [1]: -
- in vitro deubiquitylation activity [2]: -
- in vitro deubiquitylation activity [3]: +
- in vitro deubiquitylation activity [4]: -
- in vitro deubiquitylation activity [5]: -
- in vitro deubiquitylation activity [6]: +
- in vitro deubiquitylation activity [8]: -
- in vitro deubiquitylation activity [7]: -

B5: OTU10-NΔ1-125 (protein)
chain: EWIGNDNDQDGRSDDSVNVFSCSSPSDTDEYVYSWESDQCDADGEFGRRLNQMVPIPYIPKINGEIPPEEEAVSDHERLRNRLEMFDFTEVKVPGDGNCQFRALADQLYKTADRHKHVRRQIVKQLKSRPDSYQGYVPMDFSDYLRKMSRSGEWGDHVTLQAAADAYRVKIVVLTSFKDTCYIEILPTSQESKGVIFLSFWAEVHYNAIYLNRDTSETELQRKRKWWRFGN
- cleavage [3]: comparable to that catalyzed by the corresponding wild-type proteins
- cleavage [6]: comparable to that catalyzed by the corresponding wild-type proteins

B6: OTU7a-C48S (protein)
chain: MAKTKQQKSKPKKQPHQKQGKDCDLSQFRAQLDALGLKIIQVTADGNSFFRAIADQLEGNEDEHNKYRNMIVLYIVKNREMFEPFIEDDVPFEDYCKTMDDDGTWAGNMELQAASLVTRSNICIHRNMSPRWYIRNFEDTRTRMIHLSYHDGEHYNSVRSKEDACGGPARPVVIEADAKVSAASKQAKATESKSKNKADKCHVNAGAIKVVMSGSCCDNTEKAEQVLLQVNGDVDAAIEFLIADQGMESLTENDTETASASDTINPKHASDSPMENTEQAREELIEEESASGNNSETVQAKCTTQTDDKKIPRNKTCPCGSKKKYKSCCGTATGRSSVKLLVSQTMESKKGRKNLRRGTSNEVEANAPDVGALCI
- cleavage activity [3]: completely abolished
- cleavage activity [6]: completely abolished

B7: His-tagged OTU3 (protein)
chain: MELKSSSNNNILEQLRNGFARFELVSSPTASVSDSISSTSLPASFISTTKGNSYVFFARINSSMNRSPAAKKVEKYAVDRVKGDGRCLFRALVKGMAFNKGITLNPQRERDDADELRMAVKEVICNDPKEREKYKEALVAITVDESLKRFCQRIGRHDFWGGESELLVLSKLCKQPIIVYIPEHEHGRGGGYGPGFIPIQEYGSEFRGGWGKGKTNKNVVRLLYSGRNHYDLLR
- in vitro deubiquitylation activity [1]: +
- in vitro deubiquitylation activity [2]: +
- in vitro deubiquitylation activity [3]: ++
- in vitro deubiquitylation activity [4]: -
- in vitro deubiquitylation activity [5]: +
- in vitro deubiquitylation activity [6]: +++
- in vitro deubiquitylation activity [8]: -
- in vitro deubiquitylation activity [7]: ++

B8: OTU1-C92S (protein)
chain: MQNQIDMVKDEAEVAASISAIKGEEWGNCSSVEDQPSFQEEEAAKVPYVGDKEPLSSLAAEYQSGSPILLEKIKILDSQYIGIRRTRGDGNSFFRSFMFSYLEHILESQDRAEVDRIKVNVEKCRKTLQNLGYTDFTFEDFFALFLEQLDDILQGTEESISYDELVNRSRDQSVSDYIVMFFRFVTAGDIRTRADFFEPFITGLSNATVDQFCKSSVEPMGEESDHIHITALSDALGVAIRVVYLDRSSCDSGGVTVNHHDFVPVGITNEKDEEASAPFITLLYRPGHYDILYPKPSCKVSDNVGK
- linear UB polymer cleavage activity [1]: generally abolished
- cleavage activity [3]: completely abolished
- linear UB polymer cleavage activity [4]: generally abolished
- linear UB polymer cleavage activity [5]: generally abolished
- cleavage activity [6]: completely abolished

B9: OTU1-D89E (protein)
chain: MQNQIDMVKDEAEVAASISAIKGEEWGNCSSVEDQPSFQEEEAAKVPYVGDKEPLSSLAAEYQSGSPILLEKIKILDSQYIGIRRTRGEGNCFFRSFMFSYLEHILESQDRAEVDRIKVNVEKCRKTLQNLGYTDFTFEDFFALFLEQLDDILQGTEESISYDELVNRSRDQSVSDYIVMFFRFVTAGDIRTRADFFEPFITGLSNATVDQFCKSSVEPMGEESDHIHITALSDALGVAIRVVYLDRSSCDSGGVTVNHHDFVPVGITNEKDEEASAPFITLLYRPGHYDILYPKPSCKVSDNVGK
- linear UB polymer cleavage activity [1]: to a similar extent as the wild-type protein
- cleavage activity [3]: completely abolished
- linear UB polymer cleavage activity [4]: to a similar extent as the wild-type protein
- linear UB polymer cleavage activity [5]: to a similar extent as the wild-type protein
- cleavage activity [6]: completely abolished

B10: OTU1-H288R (protein)
chain: MQNQIDMVKDEAEVAASISAIKGEEWGNCSSVEDQPSFQEEEAAKVPYVGDKEPLSSLAAEYQSGSPILLEKIKILDSQYIGIRRTRGDGNCFFRSFMFSYLEHILESQDRAEVDRIKVNVEKCRKTLQNLGYTDFTFEDFFALFLEQLDDILQGTEESISYDELVNRSRDQSVSDYIVMFFRFVTAGDIRTRADFFEPFITGLSNATVDQFCKSSVEPMGEESDHIHITALSDALGVAIRVVYLDRSSCDSGGVTVNHHDFVPVGITNEKDEEASAPFITLLYRPGRYDILYPKPSCKVSDNVGK
- linear UB polymer cleavage activity [1]: generally abolished
- cleavage activity [3]: completely abolished
- linear UB polymer cleavage activity [4]: generally abolished
- linear UB polymer cleavage activity [5]: generally abolished
- cleavage activity [6]: completely abolished

B11: OTU10-NΔ1-173 (protein)
chain: RLNQMVPIPYIPKINGEIPPEEEAVSDHERLRNRLEMFDFTEVKVPGDGNCQFRALADQLYKTADRHKHVRRQIVKQLKSRPDSYQGYVPMDFSDYLRKMSRSGEWGDHVTLQAAADAYRVKIVVLTSFKDTCYIEILPTSQESKGVIFLSFWAEVHYNAIYLNRDTSETELQRKRKWWRFGN
- cleavage [3]: comparable to that catalyzed by the corresponding wild-type proteins
- cleavage [6]: comparable to that catalyzed by the corresponding wild-type proteins

B12: OTU9-NΔ1-172 (protein)
chain: AHVPKINGELPSEDEQISDHERLFQRLQLYGLVENKIEGDGNCQFRSLSDQLYRSPEHHNFVREQVVNQLAYNREIYEGYVPMAYNDYLKAMKRNGEWGDHVTLQAAADLFGVRMFVITSFKDTCYIEILPHFQKSNRLICLSFWAEVHYNSIYPEGELPIPEGKKKKKYWVF
- cleavage [3]: comparable to that catalyzed by the corresponding wild-type proteins
- cleavage [6]: comparable to that catalyzed by the corresponding wild-type proteins

B13: OTU9-NΔ 1-100 (protein)
chain: GQENQGEAIDITQESDILHNHNGNMEDKNVARIRFEGGQSSPSRDDDSVCSVEIEEESWSEVGKRLNQMIPIAHVPKINGELPSEDEQISDHERLFQRLQLYGLVENKIEGDGNCQFRSLSDQLYRSPEHHNFVREQVVNQLAYNREIYEGYVPMAYNDYLKAMKRNGEWGDHVTLQAAADLFGVRMFVITSFKDTCYIEILPHFQKSNRLICLSFWAEVHYNSIYPEGELPIPEGKKKKKYWVF
- cleavage [3]: comparable to that catalyzed by the corresponding wild-type proteins
- cleavage [6]: comparable to that catalyzed by the corresponding wild-type proteins
